Source: paper PMC6433461

Target: ParB2^S68C-AlexaFluor488 (B. subtilis) (UniProt P26497)

- percentage of single DNA molecules condensed by 250 nM ParB^AF alone at permissive forces, Mg2+ buffer, combined lateral MT-TIRF: 83%
B1: ParB2^S68C-AlexaFluor488 (natural protein)
chain: MAKGLGKGINALFNQVDLSEETVEEIKIADLRPNPYQPRKHFDDEALAELKESVLQHGILQPLIVRKCLKGYDIVAGERRFRAAKLAGLDTVPAIVRELSEALMREIALLENLQREDLSPLEEAQAYDSLLKHLDLTQEQLAKRLGKSRPHIANHLRLLTLPENIQQLIAEGTLSMGHGRTLLGLKNKNKLEPLVQKVIAEQLNVRQLEQLIQQLNQNVPRETKKKEPVKDAVLKERESYLQNYFGTTVNIKRQKKKGKIEIEFFSNEDLDRILELLSERES
modifications: Alexa Fluor 488 C5 maleimide coupled to the cysteine of S68C; approximate efficiency of 2 dyes per ParB monomer as printed
